Two molecules from PMC6117352, “Multidomain architecture of estrogen receptor reveals interfacial cross-talk between its DNA-binding and ligand-binding domains” (Nature Communications, 2018) can be followed below.

Data set [1] concerns the molecule itself. Nature of the data set: SEC-SAXS + hydroxyl radical protein footprinting, docked models scored against both data sets; hERα^CDE eluted from Superdex 200 with E2, ERE–DNA and TIF2 peptide; 10 mM CHES pH 9.5, 50 mM NaCl, 50 mM KCl; footprinting at 2 µM protein, pH 9.5. (In general: In gel filtration, larger molecules generally elute earlier.)
The target in the next data set is hERαCDE W393A (Homo sapiens, UniProt P03372 181-552, W393A). Nature of the data set: fluorescence anisotropy; E2, TIF2 coactivator peptide; 20 nM DNA; FA: 10 mM CHES pH 9.5, 50 mM KCl, 50 mM NaCl, 4 mM MgCl2, 50 mM arginine, 50 mM glutamic acid, 5 mM TCEP, 5% glycerol, 10 uM ZnCl2, 10 uM E2; 20 nM DNA, 10 min; temperature not stated. The conditions noted are these: protein: recombinant; tags: His-tag (pMCSG7), removed by TEV; chain copies: 2; label: 5' 6-FAM (strands described as 5'-labeled); blunt, 19 bp as printed (text says 18-bp). A general note: Fluorescence polarisation rises when a labelled molecule tumbles more slowly, as on binding a larger partner.

For another data set, the target named is hERαCDE Y191H (Homo sapiens, UniProt P03372 181-552, Y191H). The description is as above. The following applies: protein: recombinant; tags: His-tag (pMCSG7), removed by TEV; chain copies: 2; label: 5' 6-FAM (strands described as 5'-labeled); blunt, 19 bp as printed (text says 18-bp).
The next data set concerns the target hERαCDE WT (Homo sapiens, UniProt P03372 181-552). Nature of the data set: fluorescence anisotropy; E2, TIF2 coactivator peptide; 20 nM DNA; apparent Kd; FA: 10 mM CHES pH 9.5, 50 mM KCl, 50 mM NaCl, 4 mM MgCl2, 50 mM arginine, 50 mM glutamic acid, 5 mM TCEP, 5% glycerol, 10 uM ZnCl2, 10 uM E2; 20 nM DNA, 10 min; temperature not stated. The conditions noted are these: protein: recombinant; tags: His-tag (pMCSG7), removed by TEV; chain copies: 2; label: 5' 6-FAM (strands described as 5'-labeled); blunt, 19 bp as printed (text says 18-bp).

hERαCDE W393A, sequence (P03372 181-552 W393A): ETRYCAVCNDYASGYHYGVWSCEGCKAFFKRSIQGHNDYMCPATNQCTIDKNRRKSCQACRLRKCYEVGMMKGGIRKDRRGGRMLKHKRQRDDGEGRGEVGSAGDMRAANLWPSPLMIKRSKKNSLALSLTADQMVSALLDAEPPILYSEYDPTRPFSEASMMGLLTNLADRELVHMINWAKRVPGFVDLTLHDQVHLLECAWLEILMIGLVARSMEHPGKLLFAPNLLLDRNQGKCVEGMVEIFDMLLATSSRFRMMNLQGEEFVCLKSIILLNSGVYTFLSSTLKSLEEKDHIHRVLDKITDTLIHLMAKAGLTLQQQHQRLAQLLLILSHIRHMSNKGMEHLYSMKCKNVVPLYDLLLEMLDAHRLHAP

B1: human estrogen receptor alpha multidomain segment containing both DBD and LBD (residues E181–P552), hERα^CDE (domain or fragment, UniProt P03372 181-552, looked up)
chain: ETRYCAVCNDYASGYHYGVWSCEGCKAFFKRSIQGHNDYMCPATNQCTIDKNRRKSCQACRLRKCYEVGMMKGGIRKDRRGGRMLKHKRQRDDGEGRGEVGSAGDMRAANLWPSPLMIKRSKKNSLALSLTADQMVSALLDAEPPILYSEYDPTRPFSEASMMGLLTNLADRELVHMINWAKRVPGFVDLTLHDQVHLLECAWLEILMIGLVWRSMEHPGKLLFAPNLLLDRNQGKCVEGMVEIFDMLLATSSRFRMMNLQGEEFVCLKSIILLNSGVYTFLSSTLKSLEEKDHIHRVLDKITDTLIHLMAKAGLTLQQQHQRLAQLLLILSHIRHMSNKGMEHLYSMKCKNVVPLYDLLLEMLDAHRLHAP
notes: Cloned into pMCSG7 and the His-tag removed with TEV protease; In the assays it carried estradiol (E2) and ERE-DNA; also called hERα^CDE–DNA-E2 complex; protein part of hERα^complex; source: E. coli Rosetta2(DE3)pLysS, expressed in the presence of estradiol, purified (TALON resin, TEV cleavage, Superdex 200)
Regarding B1, the binding result in data set [1] is on record as “binds”.

B2: 6-FAM ERE-DNA (dsDNA)
DNA 1: TAGGTCACAGTGACCTGCG
DNA 2: CGCAGGTCACTGTGACCTA
Regarding B2, the results for the Kd in the data set with hERαCDE W393A, with hERαCDE Y191H and with hERαCDE WT were 10.8 nM, 3.2 nM and 9.2 nM, respectively.
